The results in this text go back to patent publication US20260152527A1 (SIGHTSTREAM BIOTHERAPEUTICS, published 2026).

Starred links: 1 amine or outer side, 2 acyl side, 3 side chain; linkers in the order of their positions; H or OH if unused. Positions of bridges follow the written chain, without caps; N, C: chain ends. Non-standard residues stand in square brackets, D forms with d. *: point of attachment. Phe(OCH3) = O-methyl-tyrosine, COc1ccc(C[C@H](N[*:1])C(=O)[*:2])cc1; Hgln = homoglutamine, NC(=O)CCC[C@H](N[*:1])C(=O)[*:2]; Benzoyl(3,5-(OH)2) = O=C(c1cc(O)cc(O)c1)*; NMeW = CN[C@@H](Cc1c[nH]c2ccccc12)C(=O)O; Lys(N3) = [N-]=[N+]=NCCCC[C@H](N)C(=O)O; Phe(4-NH2) = Nc1ccc(C[C@H](N)C(=O)O)cc1; NMeH = CN[C@@H](Cc1c[nH]cn1)C(=O)O; NMeR = CN[C@@H](CCCNC(=N)N)C(=O)O; Nle = CCCC[C@H](N)C(=O)O; Pra = C#CC[C@H](N)C(=O)O A value given as a limit tells only on which side of the number the result lay.

B1: KR-036 (peptide)
peptide: Ac-[Nle]EHFRWGKC-NH2
modifications: not fully specified (bridges); printed as -Cyclo(-Ac-Nle-Glu-His-Phe-Arg-Trp-Gly-Lys-Cys)-NH2; also: cyclo(...) including Ac, ring type and places not given here
B2: KR-057 (peptide)
peptide: Ac-[Nle][Lys(N3)]H[dF]RW[Pra][Hgln]-NH2
modifications: triazole 2-7; not fully specified; printed as Ac-Nle-[Lys(N3)-His-DPhe-Arg-Trp-Pra]-Hgln-NH2
B3: KR-053 (peptide)
peptide: {Benzoyl(3,5-(OH)2)}-[Nle][Lys(N3)]H[dF]RW[Pra]K-NH2
modifications: triazole 2-7; not fully specified; printed as HyBA-Nle-[Lys(N3)-His-DPhe-Arg-Trp-Pra]-Lys-NH2
B4: KR-061 (peptide)
peptide: Ac-[Nle][Lys(N3)][Phe(OCH3)][dF]RW[Pra]K-NH2
modifications: triazole 2-7; not fully specified; printed as Ac-Nle-[Lys(N3)-Phe(OCH3)-DPhe-Arg-Trp-Pra]-Lys-NH2

Chain of human recombinant MC5R (CHO-K1/Ga15 stable cell line, GenScript) (P33032 whole entry): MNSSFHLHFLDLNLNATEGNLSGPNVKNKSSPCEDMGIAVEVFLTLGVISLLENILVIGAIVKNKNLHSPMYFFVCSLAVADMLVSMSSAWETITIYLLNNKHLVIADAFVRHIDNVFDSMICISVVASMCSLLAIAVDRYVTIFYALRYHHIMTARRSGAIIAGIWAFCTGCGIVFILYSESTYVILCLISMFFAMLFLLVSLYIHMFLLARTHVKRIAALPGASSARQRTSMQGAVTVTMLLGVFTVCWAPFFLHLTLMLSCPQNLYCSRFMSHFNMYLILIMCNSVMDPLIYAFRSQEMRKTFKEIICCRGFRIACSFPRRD
Chain of human recombinant MC3R (CHO-K1/Gα15 stable cell line, GenScript) (P41968 whole entry): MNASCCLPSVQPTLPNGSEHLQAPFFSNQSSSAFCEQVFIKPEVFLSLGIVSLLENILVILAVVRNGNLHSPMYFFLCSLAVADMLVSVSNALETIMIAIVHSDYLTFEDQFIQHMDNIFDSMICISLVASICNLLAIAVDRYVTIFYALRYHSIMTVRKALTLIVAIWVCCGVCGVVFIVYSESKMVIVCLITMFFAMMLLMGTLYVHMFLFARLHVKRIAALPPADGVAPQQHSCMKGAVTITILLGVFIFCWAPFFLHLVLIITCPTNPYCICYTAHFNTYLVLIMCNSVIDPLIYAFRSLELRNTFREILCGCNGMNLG
Chain of human recombinant MC4R (CHO-K1/Gα15 stable cell line, GenScript) (P32245 whole entry): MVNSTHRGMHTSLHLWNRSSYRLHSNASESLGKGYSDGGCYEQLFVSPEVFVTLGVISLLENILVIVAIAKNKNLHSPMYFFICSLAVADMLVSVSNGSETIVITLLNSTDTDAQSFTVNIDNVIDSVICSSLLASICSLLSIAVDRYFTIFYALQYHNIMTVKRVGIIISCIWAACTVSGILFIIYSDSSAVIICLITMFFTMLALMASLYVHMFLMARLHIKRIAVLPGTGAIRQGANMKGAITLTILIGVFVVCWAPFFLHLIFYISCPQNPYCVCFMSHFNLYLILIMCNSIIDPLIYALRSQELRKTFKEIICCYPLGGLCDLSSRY

One assay concerns the target human recombinant MC4R (CHO-K1/Gα15 stable cell line, GenScript) (human, UniProt P32245 1-332). Kind of assay: cell-based or functional assay.
Take B1: the “MC4R IC50” value came out at 40.6 nM.
In the case of Ac-[Nle][Lys(N3)]H[dF]RW[Pra]K-NH2 (triazole 2-7) [KR-037], the “MC4R IC50” value worked out at 35 nM.
With Ac-[Nle][Lys(N3)][NMeH][dF][NMeR]W[Pra]-NH2 (triazole 2-7; not fully specified) [KR-052], the “MC4R IC50” value is 122 nM.
Take B2: the “MC4R IC50” value is 33.5 nM.
In the case of Ac-EHFRWGKPV-NH2 [KR-004], the “MC4R IC50” value was 34.2 nM.
In the case of B3, the “MC4R IC50” value is 39.8 nM.
As for B4, the “MC4R IC50” value is 101 nM.
For the molecule Ac-[Nle][Lys(N3)][Phe(4-NH2)][dF]RW[Pra]-NH2 (triazole 2-7) [KR-047], the “MC4R IC50” value was 17.9 nM.
On the same count and under the same terms, the figure for Ac-[Nle][Lys(N3)][NMeH][dF]R[NMeW][Pra]-NH2 (triazole 2-7) [KR-051] is 96.2 nM.
On the same count and under the same terms, the figure for Ac-[Nle][Lys(N3)]H[dF][NMeR][NMeW][Pra]-NH2 (triazole 2-7) [KR-050] is 242 nM; for Ac-SYSMEHFRWGK-NH2 [KR-006] it is 80.9 nM.
In the case of Ac-[Nle][Lys(N3)]H[dF]R[NMeW][Pra]-NH2 (triazole 2-7) [KR-046], the “MC4R IC50” value is 39.3 nM.
For the molecule XXHFRWX (Ac-Nle-[Dab-His-DPhe-Arg-Trp-Dab] Linker: succinic acid-NH2) [KR-041], the “MC4R IC50” value was determined as 13.8 nM.

The target in a further assay is human recombinant MC1R (CHO-K1 stable cell line, GenScript) (human, UniProt Q01726 1-317). Kind of assay: cell-based or functional assay.
Chain of human recombinant MC1R (CHO-K1 stable cell line, GenScript) (Q01726 whole entry): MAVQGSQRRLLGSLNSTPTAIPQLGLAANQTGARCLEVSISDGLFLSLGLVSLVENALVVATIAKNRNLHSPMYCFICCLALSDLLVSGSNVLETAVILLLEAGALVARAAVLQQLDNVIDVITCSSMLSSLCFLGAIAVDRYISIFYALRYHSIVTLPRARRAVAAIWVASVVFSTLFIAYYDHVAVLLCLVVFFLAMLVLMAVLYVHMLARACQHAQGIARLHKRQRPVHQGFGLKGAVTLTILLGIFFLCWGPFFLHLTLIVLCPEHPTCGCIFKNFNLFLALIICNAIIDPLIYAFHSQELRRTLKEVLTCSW
With B1, the “MC1R IC50” value was determined as 0.88 nM.
Same read-out and setting: the figure for Ac-[Nle][Lys(N3)]H[dF]RW[Pra]K-NH2 (triazole 2-7) [KR-037] is 0.024 nM; for Ac-[Nle][Lys(N3)][NMeH][dF][NMeR]W[Pra]-NH2 (triazole 2-7; not fully specified) [KR-052] it is 2.68 nM.
For the molecule B2, the “MC1R IC50” value turned out to be 0.024 nM.
For the molecule Ac-EHFRWGKPV-NH2 [KR-004], the “MC1R IC50” value was 1.15 nM.
Consider B3, for which the “MC1R IC50” value was determined as 0.0089 nM.
For the molecule B4, the “MC1R IC50” value stood at 28 nM.
As to Ac-[Nle][Lys(N3)][Phe(4-NH2)][dF]RW[Pra]-NH2 (triazole 2-7) [KR-047], the “MC1R IC50” value is above 50 nM.
On the same count and under the same terms, the figure for Ac-[Nle][Lys(N3)][NMeH][dF]R[NMeW][Pra]-NH2 (triazole 2-7) [KR-051] is 0.043 nM; for Ac-[Nle][Lys(N3)]H[dF][NMeR][NMeW][Pra]-NH2 (triazole 2-7) [KR-050] it is 0.081 nM.
In the case of Ac-SYSMEHFRWGK-NH2 [KR-006], the “MC1R IC50” value was found to be 0.11 nM.
In the case of Ac-[Nle][Lys(N3)]H[dF]R[NMeW][Pra]-NH2 (triazole 2-7) [KR-046], the “MC1R IC50” value amounted to 0.28 nM.
For XXHFRWX (Ac-Nle-[Dab-His-DPhe-Arg-Trp-Dab] Linker: succinic acid-NH2) [KR-041], the “MC1R IC50” value was 0.04 nM.

Another assay has as its target human recombinant MC3R (CHO-K1/Gα15 stable cell line, GenScript) (human, UniProt P41968 1-323). The assay is described as follows: cell-based or functional assay.
Consider B1, for which the “MC3R IC50” value came out at 328 nM.
Regarding Ac-[Nle][Lys(N3)]H[dF]RW[Pra]K-NH2 (triazole 2-7) [KR-037], the “MC3R IC50” value came to 62.9 nM.
For the molecule Ac-[Nle][Lys(N3)][NMeH][dF][NMeR]W[Pra]-NH2 (triazole 2-7; not fully specified) [KR-052], the “MC3R IC50” value is above 50000 nM.
On the same count and under the same terms, the figure for B2 is 73.3 nM.
On to Ac-EHFRWGKPV-NH2 [KR-004], for which the “MC3R IC50” value was 937 nM.
Regarding B3, the “MC3R IC50” value was found to be 78.1 nM.
For B4, the “MC3R IC50” value worked out at 51.1 nM.
For Ac-[Nle][Lys(N3)][Phe(4-NH2)][dF]RW[Pra]-NH2 (triazole 2-7) [KR-047], the “MC3R IC50” value was found to be 80.9 nM.
With Ac-[Nle][Lys(N3)][NMeH][dF]R[NMeW][Pra]-NH2 (triazole 2-7) [KR-051], the “MC3R IC50” value stood at 77.5 nM.
In the case of Ac-[Nle][Lys(N3)]H[dF][NMeR][NMeW][Pra]-NH2 (triazole 2-7) [KR-050], the “MC3R IC50” value amounted to 4480 nM.
In the case of Ac-SYSMEHFRWGK-NH2 [KR-006], the “MC3R IC50” value was 224 nM.
Consider Ac-[Nle][Lys(N3)]H[dF]R[NMeW][Pra]-NH2 (triazole 2-7) [KR-046], for which the “MC3R IC50” value was 98.8 nM.
As to XXHFRWX (Ac-Nle-[Dab-His-DPhe-Arg-Trp-Dab] Linker: succinic acid-NH2) [KR-041], the “MC3R IC50” value came to 24.1 nM.

Another assay addresses human recombinant MC5R (CHO-K1/Ga15 stable cell line, GenScript) (human, UniProt P33032 1-325). Kind of assay: cell-based or functional assay.
B1: the “MC5R IC50” value is 289 nM.
For the molecule Ac-[Nle][Lys(N3)]H[dF]RW[Pra]K-NH2 (triazole 2-7) [KR-037], the “MC5R IC50” value amounted to 106 nM.
With Ac-[Nle][Lys(N3)][NMeH][dF][NMeR]W[Pra]-NH2 (triazole 2-7; not fully specified) [KR-052], the “MC5R IC50” value is 195 nM.
In the case of B2, the “MC5R IC50” value is 107 nM.
Take Ac-EHFRWGKPV-NH2 [KR-004]: the “MC5R IC50” value is above 10000 nM.
Turning to B3, the “MC5R IC50” value came to 120 nM.
As for B4, the “MC5R IC50” value was found to be 150 nM.
Turning to Ac-[Nle][Lys(N3)][Phe(4-NH2)][dF]RW[Pra]-NH2 (triazole 2-7) [KR-047], the “MC5R IC50” value came to 41.9 nM.
In the case of Ac-[Nle][Lys(N3)][NMeH][dF]R[NMeW][Pra]-NH2 (triazole 2-7) [KR-051], the “MC5R IC50” value is 98.9 nM.
Same read-out and setting: as for Ac-[Nle][Lys(N3)]H[dF][NMeR][NMeW][Pra]-NH2 (triazole 2-7) [KR-050], the figure is 234 nM.
On to Ac-SYSMEHFRWGK-NH2 [KR-006], for which the “MC5R IC50” value was 122 nM.
On the same count and under the same terms, as for Ac-[Nle][Lys(N3)]H[dF]R[NMeW][Pra]-NH2 (triazole 2-7) [KR-046], the figure is 94.8 nM; as for XXHFRWX (Ac-Nle-[Dab-His-DPhe-Arg-Trp-Dab] Linker: succinic acid-NH2) [KR-041], 44.3 nM.
